Assays:
[1] = biological target: cynomolgus ICOS (cynomolgus); experiment: Biacore (SPR), cyno ICOS; format not described
[2] = biological target: human ICOS (human) (UniProt Q9Y6W8); experiment: Biacore (SPR), human ICOS; format not described
Sequence of human ICOS (human) (Q9Y6W8 21-140 limits assumed): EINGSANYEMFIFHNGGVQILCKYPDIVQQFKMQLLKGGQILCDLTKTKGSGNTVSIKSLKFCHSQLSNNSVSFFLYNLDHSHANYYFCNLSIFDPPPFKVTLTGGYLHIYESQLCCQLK

Sequence of cynomolgus ICOS (cynomolgus) (A0A2K5 entry or part of it limits assumed): as the sequence (Q9Y6W8 21-140 limits assumed) above, with H81R counted along it

Kd [1]: 9.3 nM | Kd [2]: 17 nM
B1: murine anti-human ICOS mAb clone 314.8 (antibody, from another filing, V domains shown)
VH: QVQLQQPGTELMKPGASVKLSCKASGYTFTTYWMHWVKQRPGQGLEWIGEIDPSDSYVNYNQNFKGKATLTVDKSSSTAYIQLSSLTSEDSAVYFCARSPDYYGTSLAWFDYWGQGTLVTVST
VL: DIVMTQAAPSVPVTPGESVSISCRSSKSPLHSNGNIYLYWFLQRPGQSPQLLIYRMSNLASGVPDRFSGSGSGTTFTLKISRVEAEDVGVYYCMQHLEYPYTFGGGTKLEIK

— patent US20200140551A1
